The target of one data set is PP-1c (Homo sapiens) (UniProt P62136). To be noted: cited from earlier work.
Data set [1] concerns the target T1, Protein phosphatase-1cα (PP-1cα) (human, UniProt P62136 1-330). The data set is described as follows: SEC-MALS.
Data set [2] has as its target T1, Protein phosphatase-1cα (PP-1cα). Nature of the data set: crystal structure.
The next data set addresses p53 DBD (human, UniProt P04637 94-292). Nature of the data set: EMSA.

T1 sequence (P62136 whole entry): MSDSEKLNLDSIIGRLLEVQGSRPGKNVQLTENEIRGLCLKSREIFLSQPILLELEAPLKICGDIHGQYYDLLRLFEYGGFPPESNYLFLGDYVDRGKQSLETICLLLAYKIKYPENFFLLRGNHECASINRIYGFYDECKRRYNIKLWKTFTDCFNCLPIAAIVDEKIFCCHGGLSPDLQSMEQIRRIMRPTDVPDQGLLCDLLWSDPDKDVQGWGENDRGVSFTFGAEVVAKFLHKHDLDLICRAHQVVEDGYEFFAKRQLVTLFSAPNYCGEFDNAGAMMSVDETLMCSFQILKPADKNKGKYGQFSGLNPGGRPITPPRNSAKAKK
Sequence of p53 DBD (P04637 94-292): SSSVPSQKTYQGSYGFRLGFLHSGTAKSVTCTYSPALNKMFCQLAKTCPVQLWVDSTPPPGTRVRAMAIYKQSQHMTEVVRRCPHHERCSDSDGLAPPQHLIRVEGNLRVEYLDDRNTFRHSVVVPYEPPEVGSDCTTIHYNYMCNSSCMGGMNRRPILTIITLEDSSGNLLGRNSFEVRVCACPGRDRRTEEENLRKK
Sequence of PP-1c (Homo sapiens) (P62136 2-330): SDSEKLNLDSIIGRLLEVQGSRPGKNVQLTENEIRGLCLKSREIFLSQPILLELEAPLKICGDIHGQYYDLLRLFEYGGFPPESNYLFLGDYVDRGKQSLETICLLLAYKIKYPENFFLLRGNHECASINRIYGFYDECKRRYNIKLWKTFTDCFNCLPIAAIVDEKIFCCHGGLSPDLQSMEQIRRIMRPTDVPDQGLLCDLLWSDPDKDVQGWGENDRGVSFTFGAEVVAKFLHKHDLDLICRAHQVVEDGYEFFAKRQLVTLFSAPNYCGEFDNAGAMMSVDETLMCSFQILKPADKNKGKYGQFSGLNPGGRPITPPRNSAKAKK

Consider iASPP (from UniProt Q8WUF5), for which the Kd with PP-1c (Homo sapiens) was 26 nM.

B1: iASPP(621–828) (domain or fragment, human, UniProt Q8WUF5 621-828, looked up)
chain: RRARLNPLVLLLDAALTGELEVVQQAVKEMNDPSQPNEEGITALHNAICGANYSIVDFLITAGANVNSPDSHGWTPLHCAASCNDTVICMALVQHGAAIFATTLSDGATAFEKCDPYREGYADCATYLADVEQSMGLMNSGAVYALWDYSAEFGDELSFREGESVTVLRRDGPEETDWWWAALHGQEGYVPRNYFGLFPRVKPQRSKV
B1: the binding result in data set [1] is “binds”.

B2: ASPP2_(905–1128) (domain or fragment, human, UniProt Q13625 905-1128, looked up)
chain: RTNLRKTGSERIAHGMRVKFNPLALLLDSSLEGEFDLVQRIIYEVDDPSLPNDEGITALHNAVCAGHTEIVKFLVQFGVNVNAADSDGWTPLHCAASCNNVQVCKFLVESGAAVFAMTYSDMQTAADKCEEMEEGYTQCSQFLYGVQEKMGIMNKGVIYALWDYEPQNDDELPMKEGDCMTIIHREDEDEIEWWWARLNDKEGYVPRNLLGLYPRIKPRQRSLA
Turning to B2, the binding result in data set [1] is recorded as “binds”.

B3: iASPP_(608–828) (domain or fragment, human, UniProt Q8WUF5 608-828, looked up)
chain: RSVLRKAGSPRKARRARLNPLVLLLDAALTGELEVVQQAVKEMNDPSQPNEEGITALHNAICGANYSIVDFLITAGANVNSPDSHGWTPLHCAASCNDTVICMALVQHGAAIFATTLSDGATAFEKCDPYREGYADCATYLADVEQSMGLMNSGAVYALWDYSAEFGDELSFREGESVTVLRRDGPEETDWWWAALHGQEGYVPRNYFGLFPRVKPQRSKV
With B3, in data set [2], the binding result is “binds”.

B4: PUMA p53 site (dsDNA)
DNA 1: CGCGCCTGCAAGTCCTGACTTGTCCGCGGC
DNA 2: GCCGCGGACAAGTCAGGACTTGCAGGCGCG
In the case of B4, in the data set with p53 DBD, the binding result was “binds”.
